Data as given in US20260174888A1 (ARARIS BIOTECH, published 2026).
Read-outs that look alike come from different tables or passages of the source.

T1: CEACAM-5 (UniProt P06731 35-702, limits assumed)
T1 sequence (looked up): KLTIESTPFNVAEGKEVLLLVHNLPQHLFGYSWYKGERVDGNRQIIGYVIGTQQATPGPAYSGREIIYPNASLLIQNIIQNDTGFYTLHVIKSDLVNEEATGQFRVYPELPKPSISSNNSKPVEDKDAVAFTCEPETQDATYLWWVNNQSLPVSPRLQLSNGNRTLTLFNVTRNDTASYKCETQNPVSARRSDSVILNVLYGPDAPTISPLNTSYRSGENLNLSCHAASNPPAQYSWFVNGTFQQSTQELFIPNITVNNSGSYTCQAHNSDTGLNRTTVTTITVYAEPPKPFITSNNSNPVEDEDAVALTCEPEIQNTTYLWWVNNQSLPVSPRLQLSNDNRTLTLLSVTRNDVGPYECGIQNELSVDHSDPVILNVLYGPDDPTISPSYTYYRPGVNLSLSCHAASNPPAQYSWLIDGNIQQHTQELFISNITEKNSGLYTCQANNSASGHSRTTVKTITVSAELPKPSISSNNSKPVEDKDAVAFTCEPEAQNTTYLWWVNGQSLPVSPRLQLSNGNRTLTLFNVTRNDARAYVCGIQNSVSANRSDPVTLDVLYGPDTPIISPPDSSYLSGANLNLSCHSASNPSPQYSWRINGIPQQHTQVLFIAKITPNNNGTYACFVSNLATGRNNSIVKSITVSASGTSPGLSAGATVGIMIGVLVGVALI


Tests used:
CEACAM-5 [1] = biological target: T1, CEACAM-5; test: cell-based or functional assay
CEACAM-5 [2] = biological target: T1, CEACAM-5; test: cell-based or functional assay; remark: listed apart in the source

Row | Binder | IC50 (nM), cytotoxicity on NCI-H2110 cells, CellTiterGlo viability, 96 hours (CEACAM-5 [1]) [nM] | IC50 (nM), cytotoxicity on NCI-H2110 cells, CellTiterGlo viability, 96 hours (CEACAM-5 [2]) [nM]
1 | ARA-20-RKAA-PABC-MMAE (antibody, human IgG1, kappa, V domains shown, linker-payload RKAA-PABC-MMAE (FIG. 6) conjugated by MTG to the native, glycosylated antibody; conjugated residue not stated in the example) VH: EVQLVESGGGVVQPGRSLRLSCSASGFDFTTYWMSWVRQAPGKGLEWIGEIHPDSSTINYAPSLKDRFTISRDNAKNTLFLQMDSLRPEDTGVYFCASLYFGFPWFAYWGQGTPVTVSS VL: DIQLTQSPSSLSASVGDRVTITCKASQDVGTSVAWYQQKPGKAPKLLIYWTSTRHTGVPSRFSGSGSGTDFTFTISSLQPEDIATYYCQQYSLYRSFGQGTKVEIKR | 30.2 | 
2 | ARA-20-ARK-PABC-MMAE (antibody, human IgG1, kappa, V domains shown, linker-payload ARK-PABC-MMAE conjugated by MTG to the native, glycosylated antibody; conjugated residue not stated in the example) VH: EVQLVESGGGVVQPGRSLRLSCSASGFDFTTYWMSWVRQAPGKGLEWIGEIHPDSSTINYAPSLKDRFTISRDNAKNTLFLQMDSLRPEDTGVYFCASLYFGFPWFAYWGQGTPVTVSS VL: DIQLTQSPSSLSASVGDRVTITCKASQDVGTSVAWYQQKPGKAPKLLIYWTSTRHTGVPSRFSGSGSGTDFTFTISSLQPEDIATYYCQQYSLYRSFGQGTKVEIKR |  | 58
3 | ARA-20-FA-PEG12-ARK-PABC-MMAE (antibody, human IgG1, kappa, V domains shown, linker-payload FA-PEG12-ARK-PABC-MMAE (FIG. 5) conjugated by MTG to the native, glycosylated antibody; conjugated residue not stated in the example) VH: EVQLVESGGGVVQPGRSLRLSCSASGFDFTTYWMSWVRQAPGKGLEWIGEIHPDSSTINYAPSLKDRFTISRDNAKNTLFLQMDSLRPEDTGVYFCASLYFGFPWFAYWGQGTPVTVSS VL: DIQLTQSPSSLSASVGDRVTITCKASQDVGTSVAWYQQKPGKAPKLLIYWTSTRHTGVPSRFSGSGSGTDFTFTISSLQPEDIATYYCQQYSLYRSFGQGTKVEIKR |  | 27.8
4 | ARA-20-FA-PEG12-RKAA-PABC-MMAE (antibody, human IgG1, kappa, V domains shown, linker-payload FA-PEG12-RKAA-PABC-MMAE (FIG. 4) conjugated by MTG to the native, glycosylated antibody; conjugated residue not stated in the example) VH: EVQLVESGGGVVQPGRSLRLSCSASGFDFTTYWMSWVRQAPGKGLEWIGEIHPDSSTINYAPSLKDRFTISRDNAKNTLFLQMDSLRPEDTGVYFCASLYFGFPWFAYWGQGTPVTVSS VL: DIQLTQSPSSLSASVGDRVTITCKASQDVGTSVAWYQQKPGKAPKLLIYWTSTRHTGVPSRFSGSGSGTDFTFTISSLQPEDIATYYCQQYSLYRSFGQGTKVEIKR | 4.68 | 
5 | ARA-20-FA-PEG24-RKAA-PABC-MMAE (antibody, human IgG1, kappa, V domains shown, linker-payload FA-PEG24-RKAA-PABC-MMAE (FIG. 3) conjugated by MTG to the native, glycosylated antibody; conjugated residue not stated in the example) VH: EVQLVESGGGVVQPGRSLRLSCSASGFDFTTYWMSWVRQAPGKGLEWIGEIHPDSSTINYAPSLKDRFTISRDNAKNTLFLQMDSLRPEDTGVYFCASLYFGFPWFAYWGQGTPVTVSS VL: DIQLTQSPSSLSASVGDRVTITCKASQDVGTSVAWYQQKPGKAPKLLIYWTSTRHTGVPSRFSGSGSGTDFTFTISSLQPEDIATYYCQQYSLYRSFGQGTKVEIKR | 5.93 | 
